Assay [1] concerns the target T1, human KLB&FGFR1c complex on cells (human, UniProt Q86Z14 1-1044; P11362 22-822). As to the kind of experiment: cell-based or functional assay.
Assay [2] concerns the target T1, human KLB&FGFR1c complex on cells. Briefly: cell-based or functional assay. The source holds these as a separate data set.

T1 sequence (P11362 22-822, one chain of several): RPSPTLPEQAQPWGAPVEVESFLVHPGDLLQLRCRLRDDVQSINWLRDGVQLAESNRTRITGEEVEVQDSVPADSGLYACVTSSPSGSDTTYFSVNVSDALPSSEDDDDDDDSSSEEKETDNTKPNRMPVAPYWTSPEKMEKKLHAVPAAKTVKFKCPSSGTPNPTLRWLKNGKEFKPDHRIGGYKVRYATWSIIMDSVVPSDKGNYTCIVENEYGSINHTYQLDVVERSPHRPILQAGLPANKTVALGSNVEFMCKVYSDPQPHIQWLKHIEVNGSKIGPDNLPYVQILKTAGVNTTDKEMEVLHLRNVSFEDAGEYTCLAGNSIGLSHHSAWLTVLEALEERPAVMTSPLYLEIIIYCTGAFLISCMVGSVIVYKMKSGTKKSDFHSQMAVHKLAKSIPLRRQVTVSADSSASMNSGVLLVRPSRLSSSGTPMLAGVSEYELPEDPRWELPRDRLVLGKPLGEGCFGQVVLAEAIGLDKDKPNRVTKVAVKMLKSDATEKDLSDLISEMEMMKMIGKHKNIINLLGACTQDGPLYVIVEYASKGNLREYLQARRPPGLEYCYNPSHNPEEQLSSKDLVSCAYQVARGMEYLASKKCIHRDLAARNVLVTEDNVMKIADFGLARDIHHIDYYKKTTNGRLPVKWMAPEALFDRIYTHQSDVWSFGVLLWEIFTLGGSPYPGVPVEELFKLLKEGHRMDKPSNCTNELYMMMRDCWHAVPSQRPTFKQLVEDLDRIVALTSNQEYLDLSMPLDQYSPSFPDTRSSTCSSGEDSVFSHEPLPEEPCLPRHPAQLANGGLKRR

B1: hAb99-13 (antibody, human IgG1, kappa, L234A L235A, V domains shown)
VH: EVQLVQSGAEVKKPGASVKVSCKASGYTFTNYGINWVRQAPGQRLEWMGYIYIGNVDIEYNAKFKGRVTITSDTSASTAYMELSSLRSEDTAVYYCARGRGLGHFDVWGQGTTVTVSS
VL: DIQMTQSPSSLSASVGDRVTITCRASKSISKFLAWFQQKPGKTNKLLIYSGSTLQSGVPSRFSGSGSGTDFTLTISSLQPEDFATYYCQQHNEYPWTFGGGTKVEIKR
notes: human IgG1 (L234A, L235A) / kappa
For B1, in assay [1], the “Activation fold, GAL4-Elk1 luciferase reporter in CHOK1-hKLB&hFGFR1c cells” value worked out at 14.3 fold and the “EC50 (nM), GAL4-Elk1 luciferase reporter in CHOK1-hKLB&hFGFR1c cells” value was found to be 0.19 nM. In assay [2], the “Activation fold, SRE-Luc2P reporter in HEK293T-hKLB&hFGFR1c cells” value was 3.57 fold and the “EC50 (nM), SRE-Luc2P reporter in HEK293T-hKLB&hFGFR1c cells” value amounted to 2.62 nM.

B2: hAb18-8 (antibody, human IgG1, kappa, L234A L235A, V domains shown)
VH: EVQLVQSGAEVKKPGASVKVSCKASGYTFTDYAMHWVRQAPGQRLEWMGVISTYSGTTNYNQNFKGRVTITVDKSASTAYMELSSLRSEDTAVYYCARSGPLDYWGQGTTVTVSS
VL: ENVLTQSPDFQSVTPKEKVTITCRATSSVSSSYLHWYQQKPDQSPKLWIYSTSQLASGVPSRFSGSGSGTDYTLTINSLEAEDAATYYCQQYSGYPLTFGQGTKLEIKR
notes: as for B1
As for B2, in assay [2], the “Activation fold, SRE-Luc2P reporter in HEK293T-hKLB&hFGFR1c cells” value was 2.29 fold and the “EC50 (nM), SRE-Luc2P reporter in HEK293T-hKLB&hFGFR1c cells” value worked out at 5.35 nM.

For the origin of these results see patent publication US20240270874A1 (JIANGSU HENGRUI PHARMACEUTICALS, published 2024).
